# According to patent US6994974B1, “Intracellular amyloid-beta binding (ERAB) polypeptide-related assays” (The trustees of Columbia University in the city of New York, priority 1997, dated 2006):
# B1: TrcHis-CAT: control fusion protein, TrcHis-chloramphenicol acetyltransferase (protein)
# chain: MEKKITGYTTVDISQWHRKEHFEAFQSVAQCTYNQTVQLDITAFLKTVKKNKHKFYPAFIHILARLMNAHPEFRMAMKDGELVIWDSVHPCYTVFHEQTETFSSLWSEYHDDFRQFLHIYSQDVACYGENLAYFPKGFIENMFFVSANPWVSFTSFDLNVANMDNFFAPVFTMGKYYTQGDKVLMPLAIQVHHAVCDGFHVGRMLNELQQYCDEWQGGA
# modifications: left off: small tags and cut ends
# notes: control fusion protein, TrcHis-chloramphenicol acetyltransferase
# Biological target: T1, amyloid-beta peptide (1–42) (Homo sapiens, UniProt P05067)
# T1 construct: the region encoding A4 (APP amino acids 653 to 694)
# Test: Binding of ^125I-TrcHis-ERAB polypeptide to amyloid-beta peptide (1–42) adsorbed to microtiter wells
# Conditions: excess unlabelled protein
# Experimental: FIGS. 2A, 2B, 2C, 2D, 2E, 2F, and 2G. […] FIG. 2A. SDS-PAGE (12%; reduced) followed by immunoblotting of TrcHis-ERAB polypeptide (FIG. 2A, lane 1; 2 μg) and TrcHis-chloramphenicol acetyltransferase (CAT; FIG. 2A, lane 2; 2 μg) fusion proteins using anti-ERAB polypeptide IgG (3 μg/ml). […] FIGS. 2B and 2C. […] Binding was analyzed by nonlinear least squares analysis using the method of Klotz and Hunston (60). FIG. 2E. […] FIGS. 2F and 2G. […] 0 indicates wells coated with albumin alone. […] Control TrcHis-CAT construct (Invitrogen) was also used to transform E. coli and the fusion protein was purified as above. Antibody to ERAB polypeptide was prepared by immunizing rabbits with ERAB polypeptide-derived peptides, corresponding to residues 100–116 and 133–147, conjugated to keyhole limpet hemocyanin. […] (for ERAB polypeptide) or overnight at 4° C. […] Unbound radioactivity was removed by washing wells five times with ice cold phosphate-buffered saline containing Tween 20 (0.05%), and bound radioactivity was eluted by incubation with Nonidet P-40 (1%).
molecule,measurement,value
B1,Inhibition of ^125I-TrcHis-ERAB binding to adsorbed amyloid-beta peptide,did not inhibit
